Results from the supplement of paper PMC10567573.

B1: HDAC6 (parent)
chain: YVHHQALLDVKNIAHQNKFGEDMP

Variants of: B1
Assay: protein stability index of a GFP-peptide fusion (GPS, HEK-293T) (PSI 1-6); higher = more stable
Conditions: c terminus: a fixed tail appended
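Note: lentivirally expressed fusions sorted by FACS into six bins by GFP to DsRed ratio, PSI derived from sequencing read proportions per bin multiplied by bin number.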

Variant | protein stability index
YVWHQALLDVKNIAHQNKFGEDMP [H3W] | 2.41
YVLHQALLDVKNIAHQNKFGEDMP [H3L] | 2
YVVHQALLDVKNIAHQNKFGEDMP [H3V] | 2.46
YVQHQALLDVKNIAHQNKFGEDMP [H3Q] | 1.78
YVCHQALLDVKNIAHQNKFGEDMP [H3C] | 1.89
YVAHQALLDVKNIAHQNKFGEDMP [H3A] | 1.55
YVIHQALLDVKNIAHQNKFGEDMP [H3I] | 1.66
YVDHQALLDVKNIAHQNKFGEDMP [H3D] | 2.14
YVYHQALLDVKNIAHQNKFGEDMP [H3Y] | 1.69
YVGHQALLDVKNIAHQNKFGEDMP [H3G] | 2.03
YVMHQALLDVKNIAHQNKFGEDMP [H3M] | 1.8
YVTHQALLDVKNIAHQNKFGEDMP [H3T] | 1.82
YVFHQALLDVKNIAHQNKFGEDMP [H3F] | 1.48
YVKHQALLDVKNIAHQNKFGEDMP [H3K] | 2.18
YVSHQALLDVKNIAHQNKFGEDMP [H3S] | 2
YVPHQALLDVKNIAHQNKFGEDMP [H3P] | 1.65
YVNHQALLDVKNIAHQNKFGEDMP [H3N] | 2.62
YVEHQALLDVKNIAHQNKFGEDMP [H3E] | 2.81
YVRHQALLDVKNIAHQNKFGEDMP [H3R] | 1.39
YVHHQALLDYKNIAHQNKFGEDMP [V10Y] | 1.62
YVHHQALLDQKNIAHQNKFGEDMP [V10Q] | 2.43
YVHHQALLDEKNIAHQNKFGEDMP [V10E] | 2.5
YVHHQALLDAKNIAHQNKFGEDMP [V10A] | 2.33
YVHHQALLDNKNIAHQNKFGEDMP [V10N] | 2.05

Variant | protein stability index
YVHHQALLDCKNIAHQNKFGEDMP [V10C] | 2
YVHHQALLDLKNIAHQNKFGEDMP [V10L] | 1.9
YVHHQALLDRKNIAHQNKFGEDMP [V10R] | 1.85
YVHHQALLDSKNIAHQNKFGEDMP [V10S] | 1.84
YVHHQALLDDKNIAHQNKFGEDMP [V10D] | 2.74
YVHHQALLDHKNIAHQNKFGEDMP [V10H] | 2.14
YVHHQALLDGKNIAHQNKFGEDMP [V10G] | 2.02
YVHHQALLDPKNIAHQNKFGEDMP [V10P] | 2.15
YVHHQALLDMKNIAHQNKFGEDMP [V10M] | 1.73
YVHHQALLDKKNIAHQNKFGEDMP [V10K] | 2.21
YVHHQALLDIKNIAHQNKFGEDMP [V10I] | 1.22
YVHHQALLDFKNIAHQNKFGEDMP [V10F] | 1.98
YVHHQALLDWKNIAHQNKFGEDMP [V10W] | 2.37
YVHHQALLDTKNIAHQNKFGEDMP [V10T] | 1.86
YVHHDALLDVKNIAHQNKFGEDMP [Q5D] | 2.08
YVHHAALLDVKNIAHQNKFGEDMP [Q5A] | 2.4
YVHHVALLDVKNIAHQNKFGEDMP [Q5V] | 1.85
YVHHGALLDVKNIAHQNKFGEDMP [Q5G] | 1.87
YVHHIALLDVKNIAHQNKFGEDMP [Q5I] | 1.88
YVHHYALLDVKNIAHQNKFGEDMP [Q5Y] | 2.35
YVHHHALLDVKNIAHQNKFGEDMP [Q5H] | 2.19
YVHHMALLDVKNIAHQNKFGEDMP [Q5M] | 2.21
YVHHTALLDVKNIAHQNKFGEDMP [Q5T] | 1.95
YVHHRALLDVKNIAHQNKFGEDMP [Q5R] | 2

Variant | protein stability index
YVHHKALLDVKNIAHQNKFGEDMP [Q5K] | 2.02
YVHHPALLDVKNIAHQNKFGEDMP [Q5P] | 1.71
YVHHSALLDVKNIAHQNKFGEDMP [Q5S] | 1.76
YVHHCALLDVKNIAHQNKFGEDMP [Q5C] | 1.36
YVHHWALLDVKNIAHQNKFGEDMP [Q5W] | 3.05
YVHHLALLDVKNIAHQNKFGEDMP [Q5L] | 1.75
YVHHNALLDVKNIAHQNKFGEDMP [Q5N] | 1.79
YVHHEALLDVKNIAHQNKFGEDMP [Q5E] | 2.16
YEHHQALLDVKNIAHQNKFGEDMP [V2E] | 4.55
YKHHQALLDVKNIAHQNKFGEDMP [V2K] | 4.15
YLHHQALLDVKNIAHQNKFGEDMP [V2L] | 2.56
YCHHQALLDVKNIAHQNKFGEDMP [V2C] | 2.02
YAHHQALLDVKNIAHQNKFGEDMP [V2A] | 3.16
YSHHQALLDVKNIAHQNKFGEDMP [V2S] | 3.56
YHHHQALLDVKNIAHQNKFGEDMP [V2H] | 1.65
YYHHQALLDVKNIAHQNKFGEDMP [V2Y] | 2.98
YMHHQALLDVKNIAHQNKFGEDMP [V2M] | 3.17
YPHHQALLDVKNIAHQNKFGEDMP [V2P] | 3
YGHHQALLDVKNIAHQNKFGEDMP [V2G] | 3.43
YFHHQALLDVKNIAHQNKFGEDMP [V2F] | 2.44
YRHHQALLDVKNIAHQNKFGEDMP [V2R] | 3.69
YNHHQALLDVKNIAHQNKFGEDMP [V2N] | 4.12
YTHHQALLDVKNIAHQNKFGEDMP [V2T] | 2.95
YWHHQALLDVKNIAHQNKFGEDMP [V2W] | 2.21

Variant | protein stability index
YDHHQALLDVKNIAHQNKFGEDMP [V2D] | 4.33
YIHHQALLDVKNIAHQNKFGEDMP [V2I] | 1.81
YQHHQALLDVKNIAHQNKFGEDMP [V2Q] | 2.77
YVHHQDLLDVKNIAHQNKFGEDMP [A6D] | 2.22
YVHHQSLLDVKNIAHQNKFGEDMP [A6S] | 2.41
YVHHQMLLDVKNIAHQNKFGEDMP [A6M] | 1.96
YVHHQTLLDVKNIAHQNKFGEDMP [A6T] | 1.97
YVHHQYLLDVKNIAHQNKFGEDMP [A6Y] | 2.07
YVHHQHLLDVKNIAHQNKFGEDMP [A6H] | 1.86
YVHHQELLDVKNIAHQNKFGEDMP [A6E] | 2.17
YVHHQKLLDVKNIAHQNKFGEDMP [A6K] | 1.64
YVHHQVLLDVKNIAHQNKFGEDMP [A6V] | 1.86
YVHHQILLDVKNIAHQNKFGEDMP [A6I] | 3.2
YVHHQPLLDVKNIAHQNKFGEDMP [A6P] | 1.69
YVHHQNLLDVKNIAHQNKFGEDMP [A6N] | 1.84
YVHHQWLLDVKNIAHQNKFGEDMP [A6W] | 2.7
YVHHQGLLDVKNIAHQNKFGEDMP [A6G] | 2.65
YVHHQCLLDVKNIAHQNKFGEDMP [A6C] | 1.71
YVHHQFLLDVKNIAHQNKFGEDMP [A6F] | 1.4
YVHHQRLLDVKNIAHQNKFGEDMP [A6R] | 2.07
YVHHQLLLDVKNIAHQNKFGEDMP [A6L] | 1.58
YVHHQQLLDVKNIAHQNKFGEDMP [A6Q] | 1.86
